Measured values from the supplement of paper PMC7877785.
± gives the uncertainty stated by the source.

Test: self-splicing fitness, log relative to wild type (ln ratio); higher = more splicing; Tetrahymena group I intron in knt gene, E. coli kanamycin selection, DiMSum; sequences stand for … in CUCUCU…GGAGGGAAAAGUUAUCAGGCAUGCACCUGGUAGCUAGUCUUUAAACCAAUAGAUUGCAUCGGUUUAAAAGGCAAGACCGUCAAAUUGCGGGAAAGGGGUCAACAGCCGUUCAGUACCAAGUCUCAGGGGAAACUUUGAGAUGGCCUUGCAAAGGGUAUGGUAAUAAGCUGACGGACAUGGUCCUAACCACGCAGCCAAGUCCUAAGUCAACAGAUCUUCUGUUGAUAUGGAUGCAGUUCACAGACUAAAUGUCGGUCGGGGAAGAUGUAUUCUUCUCAUAAGAUAUAGUCGGACCUCUCCUUAAUGGGAGCUAGCGGAUGAAGUGAUGCAACACUGGAGCCGCUGGGAACUAAUUUGUAUGCGAAAGUAUAUUGAUUAGUUUUGGAGUACUCGUGGUCG
How it was run: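 Colonies from six replicate transformations of E. coli BL21(DE3) were pooled and amplicon-sequenced on an Illumina HiSeq 2500. The library placed an intron with all eight P1ex-region nucleotides randomised inside the knt kanamycin-resistance gene on pET-22b(+), and cells grew overnight at 37°C or 30°C on LB agar with or without 25 μg/mL kanamycin (plus 100 μg/mL carbenicillin, 50 μM IPTG, 0.2% rhamnose). Fitness is the DiMSum error-weighted combination of wild-type-normalised replicate fold changes, kanamycin versus none.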

Sequence	self-splicing fitness (ln) (30 °C)	self-splicing fitness (ln) (37 °C)
AAAAAGCAAUAUUACGAACG	-0.0786 ± 0.076	-0.303 ± 0.1
AAAAAGCAAUAUUACGAAGC		-1.85 ± 0.22
AAAAAGCAAUAUUACGACCG	-0.107 ± 0.13	-0.00629 ± 0.17
AAAAAGCAAUAUUACGACGC	-0.27 ± 0.086	-0.264 ± 0.1
AAAAAGCAAUAUUACGAGAA	-2.33 ± 0.33	-0.686 ± 0.27
AAAAAGCAAUAUUACGAGGA	-2.86 ± 0.16	-2.21 ± 0.15
AAAAAGCAAUAUUACGAUAG	-3.26 ± 0.17	-1.11 ± 0.15
AAAAAGCAAUAUUACGAUUG	-1.86 ± 0.093	-1.67 ± 0.13
AAAAAGCAAUAUUACGCAUG	-0.952 ± 0.066	0.04 ± 0.074
AAAAAGCAAUAUUACGCCAG	-2.24 ± 0.14	-2.24 ± 0.23
AAAAAGCAAUAUUACGCGGA	-1.95 ± 0.11	-0.504 ± 0.11
AAAAAGCAAUAUUACGCGUG	-1.12 ± 0.064	-1.18 ± 0.076
AAAAAGCAAUAUUACGCGUU	-2.73 ± 0.11	-1.44 ± 0.11
AAAAAGCAAUAUUACGCUCC	-1.14 ± 0.13	-0.319 ± 0.17
AAAAAGCAAUAUUACGCUCU	-1.08 ± 0.081	-0.167 ± 0.09
AAAAAGCAAUAUUACGGAAU	-2.25 ± 0.11	-1.36 ± 0.13
AAAAAGCAAUAUUACGGCUG	-0.648 ± 0.085	-0.345 ± 0.13
AAAAAGCAAUAUUACGGGAG	-2.11 ± 0.11	-1.04 ± 0.12
AAAAAGCAAUAUUACGGGGU	-3.62 ± 0.16	-2.32 ± 0.17
AAAAAGCAAUAUUACGUAAA	-1.82 ± 0.086	-1.19 ± 0.09
AAAAAGCAAUAUUACGUAGA	-2.21 ± 0.062	-1.33 ± 0.065
AAAAAGCAAUAUUACGUAGC	-3.26 ± 0.15	-1.64 ± 0.12
AAAAAGCAAUAUUACGUGAC	-2.84 ± 0.14	-2.31 ± 0.17
AAAAAGCAAUAUUACGUGCG	-0.427 ± 0.052	-0.846 ± 0.064
AAAAAGCAAUAUUACGUGUU	-2.04 ± 0.055	-1.22 ± 0.068
AAACAGCAAUAUUACGAGAA		-1.95 ± 0.17

Sequence	self-splicing fitness (ln) (30 °C)	self-splicing fitness (ln) (37 °C)
AAACAGCAAUAUUACGAGAC	-3.96 ± 0.25	-2.66 ± 0.25
AAACAGCAAUAUUACGAGUA	-1.79 ± 0.1	-1.68 ± 0.11
AAACAGCAAUAUUACGAUAC	-2.44 ± 0.11	-1.37 ± 0.14
AAACAGCAAUAUUACGAUCU	-0.534 ± 0.063	0.138 ± 0.076
AAACAGCAAUAUUACGCAAG	-2.56 ± 0.13	-1.8 ± 0.14
AAACAGCAAUAUUACGCACA	-0.828 ± 0.085	0.269 ± 0.1
AAACAGCAAUAUUACGCAGC	-1.83 ± 0.14	-1.98 ± 0.23
AAACAGCAAUAUUACGCGGC	-3.54 ± 0.12	-2.7 ± 0.12
AAACAGCAAUAUUACGCGUG	-1.42 ± 0.052	-0.0443 ± 0.066
AAACAGCAAUAUUACGCUAG	-1.39 ± 0.095	-1.12 ± 0.13
AAACAGCAAUAUUACGCUGG	-2.53 ± 0.12	-2.62 ± 0.2
AAACAGCAAUAUUACGGAAA	-3.16 ± 0.18	-1.8 ± 0.13
AAACAGCAAUAUUACGGCAC	-1.72 ± 0.083	-0.057 ± 0.1
AAACAGCAAUAUUACGGCAG	-2.08 ± 0.099	-0.063 ± 0.1
AAACAGCAAUAUUACGGCCA	-1.41 ± 0.11	-0.0737 ± 0.12
AAACAGCAAUAUUACGGGCU	-3.15 ± 0.12	-1.95 ± 0.13
AAACAGCAAUAUUACGGUAA	-2.28 ± 0.1	-0.892 ± 0.083
AAACAGCAAUAUUACGGUCC	-2.09 ± 0.12	-0.775 ± 0.11
AAACAGCAAUAUUACGUCAU	-3.39 ± 0.12	-1.55 ± 0.085
AAACAGCAAUAUUACGUCCA	-1.19 ± 0.065	-0.777 ± 0.073
AAACAGCAAUAUUACGUCUA	-1.21 ± 0.065	-0.311 ± 0.07
AAACAGCAAUAUUACGUCUC	-3.42 ± 0.15	-2.31 ± 0.16
AAACAGCAAUAUUACGUGUA	-2.6 ± 0.1	-1.41 ± 0.089
AAACAGCAAUAUUACGUGUU	-4.29 ± 0.15	-2.24 ± 0.11
AAACAGCAAUAUUACGUUUA	-2.11 ± 0.1	-0.623 ± 0.078
AAACAGCAAUAUUACGUUUG	-2.49 ± 0.1	-1.51 ± 0.099

Sequence	self-splicing fitness (ln) (30 °C)	self-splicing fitness (ln) (37 °C)
AAAGAGCAAUAUUACGAAAU	-2.67 ± 0.23	-2.4 ± 0.24
AAAGAGCAAUAUUACGACUC	-1.4 ± 0.071	-0.537 ± 0.1
AAAGAGCAAUAUUACGAGAA	-2.11 ± 0.46	
AAAGAGCAAUAUUACGAUCA	-3.02 ± 0.21	-1.68 ± 0.14
AAAGAGCAAUAUUACGCAAC	-2.78 ± 0.26	-1.77 ± 0.42
AAAGAGCAAUAUUACGCCAG	-3.87 ± 0.35	-0.837 ± 0.21
AAAGAGCAAUAUUACGCCAU	-3.65 ± 0.22	-2.55 ± 0.29
AAAGAGCAAUAUUACGCCUU	-3.49 ± 0.29	-1.81 ± 0.23
AAAGAGCAAUAUUACGCGCU	-2.96 ± 0.4	
AAAGAGCAAUAUUACGCUAU		-2.46 ± 0.21
AAAGAGCAAUAUUACGGAAC		-2.8 ± 0.44
AAAGAGCAAUAUUACGGAGU	-3.33 ± 0.2	-3.16 ± 0.26
AAAGAGCAAUAUUACGGCAU	-1.83 ± 0.087	-0.726 ± 0.097
AAAGAGCAAUAUUACGGCGU	-1.87 ± 0.098	0.269 ± 0.094
AAAGAGCAAUAUUACGGUCC	-3.16 ± 0.44	-0.864 ± 0.38
AAAGAGCAAUAUUACGUAGU	-2.39 ± 0.16	-2.46 ± 0.22
AAAGAGCAAUAUUACGUAUU	-3.03 ± 0.2	-1.2 ± 0.14
AAAGAGCAAUAUUACGUCGA	-3.5 ± 0.27	-2.09 ± 0.18
AAAGAGCAAUAUUACGUCGU	-3.75 ± 0.26	-2.62 ± 0.17
AAAGAGCAAUAUUACGUGCU	-3.28 ± 0.22	-2.82 ± 0.25
AAAGAGCAAUAUUACGUUAC	-2.94 ± 0.31	
AAAUAGCAAUAUUACGAAAC	-3.4 ± 0.27	-1.76 ± 0.18
AAAUAGCAAUAUUACGAAAU	-3.02 ± 0.15	-1.2 ± 0.13
AAAUAGCAAUAUUACGAAUG	-1.37 ± 0.12	-1.62 ± 0.16
AAAUAGCAAUAUUACGACAA	-0.727 ± 0.1	-0.284 ± 0.1
